Assay results reported in patent publication US20220089758A1 (REVMAB BIOSCIENCES USA, published 2022).
Changes are numbered by the printed parent chain.

B1: Antibody clone 5-z (antibody, V domains shown)
VH: EVQLVESGGGLVQPGGSLRLSCAASGFSLSSNAISWVRQAPGKGLEWVGIIYASGDTYYASWAKGRFTISRDNSKNTLYLQMNSLRAEDTAVYYCARGYTTLYFWGQGTLVTVSS
VL: DIQMTQSPSSVSASVGDRVTITCQASESISTRLAWYQQKPGKAPKLLIYSASTLPSGVPSRFSGSGSGTDFTLTISSLQPEDFATYYCQGGYSSGAGTAFGGGTKVEIK
notes: Humanized antibody based on clone 5; also called 5H2-z/5L2-z
B2: Antibody clone 6-z (antibody, V domains shown)
VH: EVQLVESGGGLVQPGGSLRLSCAASGFDFSRYHMSWVRQAPGKGLEWVGIIYVSDNTYYATWAKGRFTISRDNSKNTLYLQMNSLRAEDTAVYYCVRVGSFWSSKLWGQGTLVTVSS
VL: DIQMTQSPSTLSASVGDRVTITCQASENIYSSLAWYQQKPGKAPKLLIYEASNLESGVPSRFSGSGSGTEFTLTISSLQPDDFATYYCQSTYFGNSYVFAFGGGTKVEIK
notes: Humanized antibody based on clone 6; also called 6H2-z/6L2-z
B3: Antibody clone 5 (antibody, V domains shown)
VH: QSVKESGGGLFKPTDTLTLTCTVSGFSLSSNAISWVRQAPGKGLEWIGIIYASGDTYYASWAKGRFTISKTSSTTVDLKMTSLTTEGTATYFCARGYTTLYFWGPGTLVTVSS
VL: QIVMTQTPASVSAAVGGTVTIKCQASESISTRLAWYQQKPGQPPKLLIYSASTLPSGVPSRFSGSGSGTDFTLTISGVQCDDAATYYCQGGYSSGAGTAFGGGTEVVVK
notes: Rabbit monoclonal antibody; also called 5H2/5L2
B4: APX005M (antibody, V domains shown)
VH: QVQLVESGGGVVQPGRSLRLSCAASGFSFSSTYVCWVRQAPGKGLEWIACIYTGDGTNYSASWAKGRFTISKDSSKNTVYLQMNSLRAEDTAVYFCARPDITYGFAINFWGPGTLVTVSS
VL: DIQMTQSPSSLSASVGDRVTIKCQASQSISSRLAWYQQKPGKPPKLLIYRASTLASGVPSRFSGSGSGTDFTLTISSLQPEDVATYYCQCTGYGISWPIGGGTKVEIK
B5: Antibody clone 6 (antibody, V domains shown)
VH: QSLEESGGRLVTPGTPLTLTCTASGFDFSRYHMCWVRQAPGKGLEWIGIIYVSDNTYYATWAKGRFTISRTSTTVDLKITSPTTEDTATYFCVRVGSFWSSKLWGPGTLVTVSS
VL: DVVMTQTPASVSEPVGGTVTINCQASENIYSSLAWYQQKPGQPPKLLIYEASNLESGVSSRFSGSGSGTEFTLTISDLECADAATYYCQSTYFGNSYVFAFGGGTEVVVK
notes: Rabbit monoclonal antibody; also called 6H2/6L2
B6: Antibody clone 233 (antibody, V domains shown)
VH: QEQLVESGGGLVQPEGSLTLTCTASGFSFSYYSWACWVRQAPGKGLEWIACIDGGGSRATYYASWAKGRFTISTTSSTTVTLQMTSLTAADTATYFCSRSDYNGYISYFDLWGPGTLVTVSS
VL: AFELTQTPSSVEAAVGGTVTINCQASQSIRSDLAWYQQKPGQPPKLLIYKASTLASGVPSRFRGSGSGTEYTLTISDLECADAATYYCQSYYHSSSTAFGGGTEVVVK
notes: Rabbit monoclonal antibody; also called 233H1/233L1
B7: Antibody clone 151 (antibody, V domains shown)
VH: QSVEESGGRLVTPGTPLTLTCTVSGFSLSSNAISWVRQAPGKGLEWIGVIDAGGSTYFASWAKGLFTISKTSSTTVDLQMTSLTTEDTATYFCARGWSRHDFWGPGTLVTVSS
VL: DVVMTQTPASVSEPVGGTVTIKCQASQSISNILAWYQQKPGQPPRLLIYSASTLASGVSSRFKASGSGTEFTLTISDLECADAATYYCQGYDSTVGVGAFGGGTEVVVK
notes: Rabbit monoclonal antibody; also called 151H1/151L1
B8: Antibody clone 166 (antibody, V domains shown)
VH: B5 VH with F28L, C34N, N55D, T56S, T60S, R70K, T74A, V93A, F98V
VL: B5 VL with N22K, S31N, S32N, E50R, N53T, S59P, S63K, N95G
notes: Rabbit monoclonal antibody; also called 166H2/166L1

target: T1, CD40 protein displayed on cell surface (UniProt P25942 21-277, limits assumed); test: binding to CD40-expressing cell; method not described
T1 construct: whole, on cells; One entry for cell-surface full-length CD40 in all cell assays; also called CD40 on HEKBlue CD40L reporter cells; CD40-expressing cell
T1 sequence (P25942 21-277 limits assumed): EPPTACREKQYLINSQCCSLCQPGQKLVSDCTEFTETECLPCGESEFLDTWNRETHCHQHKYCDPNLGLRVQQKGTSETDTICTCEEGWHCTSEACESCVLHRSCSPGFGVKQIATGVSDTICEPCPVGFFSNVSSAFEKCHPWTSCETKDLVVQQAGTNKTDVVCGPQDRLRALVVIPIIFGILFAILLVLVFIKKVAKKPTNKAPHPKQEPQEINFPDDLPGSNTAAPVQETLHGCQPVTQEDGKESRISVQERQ

Row | binding result | Binder
1 | binds | B1
2 | binds | B2

target: T1, CD40 protein displayed on cell surface; test: flow cytometry on HEKBlue CD40L reporter cells, fluorescent secondary antibody, median fluorescence
From the text: (§1) HEKBlue CD40L reporter cells were harvested and stained with anti-CD40 and fluorescent secondary antibodies. Antibodies binding are shown in median fluorescence intensity.

Row | EC50 | Binder
3 | 0.0541 µg/mL | B3
4 | 0.123 µg/mL | B4
5 | 0.0945 µg/mL | B5

target: T1, CD40 protein displayed on cell surface; test: cell-based or functional assay

Row | EC50 in activating B cell assessed by CD80 expression (CD19+ cells, flow cytometry) | EC50 in activating B cell assessed by CD86 expression (CD19+ cells, flow cytometry) | EC50 in activating MoDC assessed by CD86 expression | EC50 in activating monocyte derived dendritic cell (MoDC) assessed by CD80 expression | EC50 of CD40 activation, SEAP activity (Quanti-Blue, absorbance at 650 nm) of HEKBlue CD40L reporter cells | Binder
6 | 0.0027 nM | 0.0015 nM | 1.3 nM | 0.74 nM | 0.34 nM | B3
7 | 0.41 nM | 0.021 nM | 1.7 nM | 1.6 nM | 10 nM | B4
8 | 0.17 nM | 0.14 nM | 22 nM | 29 nM | 8 nM | B5

target: T1, CD40 protein displayed on cell surface; test: flow cytometry on HEKBlue CD40L reporter cells, fluorescent secondary antibody, median fluorescence intensity
From the text: as §1

Row | EC50 | Binder
9 | 0.36 nM | B3
10 | 0.82 nM | B4
11 | 0.63 nM | B5

target: T2, recombinant CD40 ECD-Fc fusion protein (UniProt P25942 21-193, limits assumed, biotinylated (site not stated)); test: BLI (Octet), biotinylated CD40 ECD-Fc captured on streptavidin probe, antibody in solution
T2 construct: extracellular domain; also called biotinylated CD40 ECD-Fc; not shown: Fc
T2 sequence (P25942 21-193 limits assumed): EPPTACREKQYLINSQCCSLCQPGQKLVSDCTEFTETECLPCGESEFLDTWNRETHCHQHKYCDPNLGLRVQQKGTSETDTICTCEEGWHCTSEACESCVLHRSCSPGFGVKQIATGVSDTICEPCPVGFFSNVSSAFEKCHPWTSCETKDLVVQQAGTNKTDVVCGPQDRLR
Procedure: Binding affinity to recombinant CD40 ECD-Fc fusion protein were determined using Bio-Layer Interferometry (BLI) on Octet system. Briefly, biotinylated CD40 ECD-Fc were captured by streptavidin probe and the antibody association/dissociation were measured with light interferometry in realtime. KD were then calculated by Kₒₙ and Koff.

Row | Kd | Binder
12 | 0.012 nM | B6
13 | 0.00604 nM | B3
14 | 0.041 nM | B4
15 | 0.084 nM | B7
16 | 0.377 nM | B5
17 | 0.42 nM | B8
